Reference: patent US20190330354A1 (MITSUBISHI TANABE PHARMA, published 2019)
Residue numbers refer to the chain shown, from its start. Like-named read-outs stand apart in the source and are kept apart here. One block for each binder: values may come before it.

What was measured:
rat cMET [1] = molecular target: T1, rat cMET (rat, UniProt P97523 25-935, limits assumed); assay: ELISA on rat cMET, ratio to parental P3D12
T1 construct: ELISA antigen; also called rMET
Target sequence in this assay (P97523 25-935 limits assumed): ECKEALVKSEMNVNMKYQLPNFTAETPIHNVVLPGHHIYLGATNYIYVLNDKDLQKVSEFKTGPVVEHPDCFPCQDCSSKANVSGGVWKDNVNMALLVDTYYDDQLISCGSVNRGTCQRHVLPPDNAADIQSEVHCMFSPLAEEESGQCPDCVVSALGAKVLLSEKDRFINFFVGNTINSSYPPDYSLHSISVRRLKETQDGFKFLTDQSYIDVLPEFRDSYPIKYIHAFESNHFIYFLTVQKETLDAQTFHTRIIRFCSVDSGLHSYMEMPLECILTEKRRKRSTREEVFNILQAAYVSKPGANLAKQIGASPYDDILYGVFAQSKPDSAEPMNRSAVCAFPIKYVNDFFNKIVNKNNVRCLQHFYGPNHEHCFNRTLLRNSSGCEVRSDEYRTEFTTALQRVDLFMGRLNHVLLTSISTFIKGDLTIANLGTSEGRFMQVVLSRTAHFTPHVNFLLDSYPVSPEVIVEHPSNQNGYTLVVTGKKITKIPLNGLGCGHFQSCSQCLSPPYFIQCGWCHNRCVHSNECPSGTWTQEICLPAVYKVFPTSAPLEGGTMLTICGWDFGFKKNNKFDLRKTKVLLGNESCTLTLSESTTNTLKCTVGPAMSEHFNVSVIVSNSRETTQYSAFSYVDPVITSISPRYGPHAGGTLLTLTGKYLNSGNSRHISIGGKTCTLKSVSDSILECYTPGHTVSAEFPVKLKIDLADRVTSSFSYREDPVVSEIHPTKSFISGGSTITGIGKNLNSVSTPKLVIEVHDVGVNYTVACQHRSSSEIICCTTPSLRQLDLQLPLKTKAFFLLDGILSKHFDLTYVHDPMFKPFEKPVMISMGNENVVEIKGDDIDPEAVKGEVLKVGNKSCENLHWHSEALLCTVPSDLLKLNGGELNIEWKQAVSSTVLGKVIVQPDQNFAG

human cMET = molecular target: T2, human cMET (human, UniProt P08581 25-932, limits assumed); assay: ELISA on human cMET, ratio to parental P3D12
T2 construct: also called hMET

Canine [2] = molecular target: T3, Canine (limits assumed); assay: ELISA, antibody titrated on cMet of the named species, OD 450 nm
T3 construct: also called canine cMet; dog cMET
T3 receptor: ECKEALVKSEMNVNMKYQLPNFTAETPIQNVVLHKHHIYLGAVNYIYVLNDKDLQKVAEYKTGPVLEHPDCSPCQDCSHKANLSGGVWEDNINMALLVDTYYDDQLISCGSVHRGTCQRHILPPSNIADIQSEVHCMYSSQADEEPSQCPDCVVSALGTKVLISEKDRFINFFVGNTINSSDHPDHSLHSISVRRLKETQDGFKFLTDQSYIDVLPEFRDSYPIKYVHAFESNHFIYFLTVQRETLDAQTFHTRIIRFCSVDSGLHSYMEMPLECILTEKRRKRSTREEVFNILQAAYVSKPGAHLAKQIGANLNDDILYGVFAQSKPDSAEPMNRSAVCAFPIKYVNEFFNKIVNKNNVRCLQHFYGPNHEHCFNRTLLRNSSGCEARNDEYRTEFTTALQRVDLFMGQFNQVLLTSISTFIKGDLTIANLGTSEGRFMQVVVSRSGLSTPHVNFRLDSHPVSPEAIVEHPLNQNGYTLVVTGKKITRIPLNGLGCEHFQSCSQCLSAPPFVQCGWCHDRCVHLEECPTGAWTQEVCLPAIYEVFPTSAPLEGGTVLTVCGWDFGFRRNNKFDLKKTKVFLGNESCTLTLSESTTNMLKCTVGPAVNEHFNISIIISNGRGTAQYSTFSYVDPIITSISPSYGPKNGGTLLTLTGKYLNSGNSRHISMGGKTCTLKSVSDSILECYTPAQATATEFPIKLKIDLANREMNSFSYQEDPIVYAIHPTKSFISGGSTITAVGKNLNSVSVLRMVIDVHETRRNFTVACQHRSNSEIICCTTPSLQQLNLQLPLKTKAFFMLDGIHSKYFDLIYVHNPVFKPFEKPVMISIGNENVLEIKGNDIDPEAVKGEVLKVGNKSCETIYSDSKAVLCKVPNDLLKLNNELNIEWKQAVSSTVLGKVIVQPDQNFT

mouse cMET [3] = molecular target: T4, mouse cMET (mouse, UniProt P16056 25-931, limits assumed); assay: as above
T4 construct: ELISA antigen

Canine [4] = molecular target: T3, Canine; assay: as above
mouse cMET [5] = molecular target: T4, mouse cMET; assay: as above; remark: listed apart in the source
Canine [6] = molecular target: T3, Canine; assay: as above
mouse cMET [7] = molecular target: T4, mouse cMET; assay: as above; remark: listed apart in the source
[8] = molecular target: human cMET-Fc fusion protein (human) [IgG part: P01857]; assay: SPR with hMet-Fc
Canine [9] = molecular target: T3, Canine; assay: ELISA, antibody titrated on cMet of the named species, OD 450 nm
rat cMET [10] = molecular target: T1, rat cMET; assay: as above
mouse cMET [11] = molecular target: T4, mouse cMET; assay: as above; remark: listed apart in the source
Canine [12] = molecular target: T3, Canine; assay: as above
rat cMET [13] = molecular target: T1, rat cMET; assay: as above; remark: listed apart in the source
mouse cMET [14] = molecular target: T4, mouse cMET; assay: as above; remark: listed apart in the source

T2 sequence (P08581 25-932 limits assumed): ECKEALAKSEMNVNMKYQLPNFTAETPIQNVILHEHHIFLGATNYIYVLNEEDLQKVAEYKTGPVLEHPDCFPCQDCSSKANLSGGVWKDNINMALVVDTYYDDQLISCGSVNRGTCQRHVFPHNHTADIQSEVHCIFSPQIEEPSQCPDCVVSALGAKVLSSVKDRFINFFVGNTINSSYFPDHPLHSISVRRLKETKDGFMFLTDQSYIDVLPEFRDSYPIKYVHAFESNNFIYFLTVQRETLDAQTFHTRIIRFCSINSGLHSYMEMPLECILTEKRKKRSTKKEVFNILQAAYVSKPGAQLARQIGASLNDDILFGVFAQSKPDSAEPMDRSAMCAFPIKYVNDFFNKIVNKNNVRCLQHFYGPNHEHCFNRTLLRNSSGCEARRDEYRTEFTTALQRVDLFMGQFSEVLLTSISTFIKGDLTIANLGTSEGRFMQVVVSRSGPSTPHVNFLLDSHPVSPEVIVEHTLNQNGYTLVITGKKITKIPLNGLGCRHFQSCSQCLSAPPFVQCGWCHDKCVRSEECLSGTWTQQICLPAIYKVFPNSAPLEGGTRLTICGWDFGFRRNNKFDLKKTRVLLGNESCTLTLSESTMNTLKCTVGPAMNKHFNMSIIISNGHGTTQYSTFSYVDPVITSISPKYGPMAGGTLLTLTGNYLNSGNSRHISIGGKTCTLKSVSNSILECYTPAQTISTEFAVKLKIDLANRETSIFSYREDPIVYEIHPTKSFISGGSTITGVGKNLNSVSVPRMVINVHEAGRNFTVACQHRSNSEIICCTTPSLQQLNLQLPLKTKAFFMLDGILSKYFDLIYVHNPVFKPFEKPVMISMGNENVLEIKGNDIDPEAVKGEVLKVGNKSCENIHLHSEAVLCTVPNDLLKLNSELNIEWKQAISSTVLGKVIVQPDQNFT

- ELISA rMET vs parental (rat cMET [1]): 1
- ELISA hMET vs parental (human cMET): 1.1
B2: G2vkf (antibody, V domains shown)
VH: QVQLVQSGAEVAKPGASVKMSCKASGYTFTSYWMHWVKQAPGQGLDWIGYIKPSTDNTEYNQKFKDKATLTADKSTSTAYMQLSSLRSEDTAVYYCARSYGNYPLMDYWGQGTTVTVSS
VL: QIVLTQSPAILSLSPGERATLSCSASSSVTSNYLYWYQQKPGSSPKLLIYSTSNLASGVPARFSGSGSGTSYTLTISSLEAEDAASYFCHQWSSYPPTFGSGTKLEIKR
notes: As G2aka; also called humanized P3D12, HC VH-ven, LC fra

- ELISA rMET vs parental (rat cMET [1]): 2.7
- ELISA hMET vs parental (human cMET): 0.9
B6: G2vka (antibody, V domains shown)
VH: B2 VH
VL: B2 VL with I10T, S24R, S27Q, K46R, S71D, S78R, A81P, A84F
notes: As G2aka; also called humanized P3D12, HC VH-ven, LC abb/sdr

- ELISA rMET vs parental (rat cMET [1]): 1.9
- ELISA hMET vs parental (human cMET): 1.1
B7: G2vkc (antibody, V domains shown)
VH: B2 VH
VL: B2 VL with I10T, K46R, S78R, A81P, A84F
notes: As G2aka; also called humanized P3D12, HC VH-ven, LC cdr

- ELISA rMET vs parental (rat cMET [1]): 1.3
- ELISA hMET vs parental (human cMET): 1.8
B8: G2akv (antibody, V domains shown)
VH: B2 VH with A12K, M20V, I48M, N61A, K65Q, D66G, K67R, A68V, Q82E
VL: B2 VL with I10T, L11M, L13A, A19V, K46R, L48W, S78R, L79M, A81P
notes: As G2aka; reported insoluble in PBS; also called humanized P3D12, HC VH-abb/sdr, LC ven

- ELISA rMET vs parental (rat cMET [1]): 1.6
- ELISA hMET vs parental (human cMET): 1.8
B9: G2vkv (antibody, V domains shown)
VH: B2 VH
VL: B2 VL with I10T, L11M, L13A, A19V, K46R, L48W, S78R, L79M, A81P
notes: As G2aka; reported insoluble in PBS; also called humanized P3D12, HC VH-ven, LC ven

- Kd [8]: 0.7 nM
B10: ABF46 (antibody, from another filing, V domains shown)
VH: EVKLVESGGGLVQPGGSLRLSCATSGFTFTDYYMSWVRQPPGKALEWLGFIRNKANGYTTEYSASVKGRFTISRDNSQSILYLQMDTLRAEDSATYYCARDNWFAYWGQGTLVTVSA
VL: DILMTQSPSSLTVSAGEKVTMSCKSSQSLLASGNQNNYLAWHQQKPGRSPKMLIIWASTRVSGVPDRFIGSGSGTDFTLTINSVQAEDLAVYYCQQSYSAPLTFGAGTKLELKR

More lines, now with the values behind:

B1: G2akc (antibody, V domains shown)
VH: B2 VH with A12K, M20V, I48M, N61A, K65Q, D66G, K67R, A68V, Q82E
VL: B2 VL with I10T, K46R, S78R, A81P, A84F
notes: As G2aka; also called humanized P3D12, HC VH-abb/sdr, LC cdr
- ELISA rMET vs parental (rat cMET [1]): 0.7
- ELISA hMET vs parental (human cMET): 1.3

B3: F6B1P3D12 (antibody, V domains shown)
VH: B2 VH with V5Q, V11L, K23R, A40R, T76S, R87T, T91S, T114S
VL: B2 VL with L11M, L13A, R18K, A19V, S22T, L48W, T73S, L79M
notes: Mouse monoclonal antibody from a hybridoma; also called Mouse P3D12; P3D12(mouse)
- binding result (Canine [2]): no binding (tested: 10 ug/mL (axis value 1, log10))
- binding result (mouse cMET [3]): no binding (tested: 10 ug/mL (axis value 1, log10))

B4: F6BP2D4 (antibody, V domains shown)
VH: QVQLQQSGAELAKPGASVKMSCKASGYTFTSYWMHWVKQRPGQGLEWIGYINPSTDYIEYNQKFKDKATLTAGKSSSTAYMQLSSLTSEDSAVYYCARSYGNFPLMDYWGQGTSVTVSS
VL: B2 VL with L11M, L13A, R18K, A19V, S22T, T30S, L48W, A61V, T73S, L79M
notes: Mouse monoclonal antibody
- binding result (Canine [4]): no binding (tested: 10 ug/mL (axis value 1, log10))
- binding result (mouse cMET [5]): no binding (tested: 10 ug/mL (axis value 1, log10))

B5: F6B1P1E2 (antibody, V domains shown)
VH: B4 VH with I58T, G73D, S77T, A97V, F103Y
VL: QIVLTQSPAIMSASPGEKVTLTCSASSSVSSNYLYWYHQKPGSSPKLWIYSTSNLASGVPVRFSGSGSGTSYSLTISSMEAEDAASYFCHQWSSYPPTFGSGTKLEIKR
notes: Mouse monoclonal antibody
- binding result (Canine [6]): no binding (tested: 10 ug/mL (axis value 1, log10))
- binding result (mouse cMET [7]): no binding (tested: 10 ug/mL (axis value 1, log10))

B11: F6AP8E2 (antibody, V domains shown)
VH: EVQLQQSGAELVRPGALVKLSCKASGFNINDYFMHWVKQRPEQGLEWIGWIDPENGNTIYDPKFQGKASITADTSSNTAYLQLSSLTSEDTAVYYCARGGNYLRESYYYAMDYWGQGTSVTVSS
VL: DIVMTQSPKSMSMSVGERVTLSCKASENVGTYVSWYQQKPDQSPKLLIYGASNRYTGVPDRFTGSGSATDFTLTISSVQAEDLADYHCGQSYSYPLTFGAGTKLELKR
notes: Mouse monoclonal antibody
- binding result (Canine [9]): no binding (tested: 10 ug/mL (axis value 1, log10))
- binding result (rat cMET [10]): no binding (tested: 10 ug/mL (axis value 1, log10))
- binding result (mouse cMET [11]): no binding (tested: 10 ug/mL (axis value 1, log10))

B12: F5P5B9 (antibody, V domains shown)
VH: QVQLKESGPGLVAPSQSLSITCTVSGFSLTNYGVNWVRQPPGKGLEWLGLIWGGGDTDYNSALKSRLSISKDNSKSQVFLKMETNSLQTDDTARYYCARDYYGFDYWGQGTTLTVSS
VL: DVLMTQTPLSLPVSLGDQASISCRSSQTIVHGTGNTYLEWYLQKPGQSPKLLIYKVSNRFSGVPDRFSGSGSGTDFTLKISRVEAEDLGVYYCFQGSHVPYTFGGGTKLEIKR
notes: Mouse monoclonal antibody
- binding result (Canine [12]): no binding (tested: 10 ug/mL)
- binding result (rat cMET [13]): no binding (tested: 10 ug/mL)
- binding result (mouse cMET [14]): no binding (tested: 10 ug/mL)
